{
  "source": "patent US20240360436A1",
  "binders": {"B1": {"name": "TT321 (Fab, part only; not given: Tiragolumab light chain, V domains shown, part only)", "VH": "EVQLVESGGGLVQPGGSLRLSCAASGFTFNMYAMSWVRQGPGKGLEWVSTISGGAGSTYYADSVKGRFTISRDNSKNTVYLQMNSLRAEDTAVYYCASEVVAATTLDYWGQGTTVTVSS"}, "B2": {"name": "TT357 (Fab, part only; not given: Tiragolumab light chain, V domains shown, part only)", "VH": "QVQLVQSGGGLVQPGGSLRLSCAASGFTFSRYWMTWVRQAPGKGLEWVANTNQDGSETYYVDSVKGRFTISRDNAKNSLYLQMNSLRAEDTAVYYCARRWSGYHDGSGYDYFDYWDQGTLVTVSS"}, "B3": {"name": "TT385 (Fab, part only; not given: Tiragolumab light chain, V domains shown, part only)", "VH": "EVQLVESGPEVKKPGTSVKVSCKASGLTFSRSAVQWLRQARGQRLEWIGWVDVASSNTNYAQKFQERVTITRDMSTSTAYMELSNLRTEDTAVYYCAADLYGFWGVQGFDPWGQGTMVTVSS"}},
  "data": [
    {"target": "T1, TIGIT antigen (UniProt Q495A1)", "T1 sequence (looked up)": "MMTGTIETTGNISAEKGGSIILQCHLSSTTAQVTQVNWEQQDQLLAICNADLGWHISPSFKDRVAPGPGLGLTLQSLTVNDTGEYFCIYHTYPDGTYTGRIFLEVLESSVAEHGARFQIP", "assay": "ELISA on TIGIT antigen, OD405", "units": {"ELISA OD405 Reading": "OD405"}, "values": [
      {"binder": "B1", "ELISA OD405 Reading": 0.547},
      {"binder": "B2", "ELISA OD405 Reading": 0.471},
      {"binder": "B3", "ELISA OD405 Reading": 0.474}
    ]}
  ]
}
